Measurements as given in PMC4769169 (eLife, 2016).

Key:
LRRK2 = biological target: T1, LRRK2 (Homo sapiens, UniProt Q5S007, G2019S); assay: in vitro kinase assay with recombinant LRRK2 and Rab10, inhibitor at […]; format: biochemical
T1 construct: GST-LRRK2 (residues 960-2527)

Rabin8 (Rab3IP) 144-460 = Rabin8 (Rab3IP) 144-460 (UniProt Q96QF0); assay: Ni2+-NTA pull-down by His-Rabin8; conditions: reference: non-phosphorylated Rab8a; sites T72
[1] = biological target: HIS-tagged Rabin8 (residues 144-460) (human) (UniProt Q96QF0)
HIS-tagged Rabin8 (residues 144-460) (human), sequence (Q96QF0 144-460): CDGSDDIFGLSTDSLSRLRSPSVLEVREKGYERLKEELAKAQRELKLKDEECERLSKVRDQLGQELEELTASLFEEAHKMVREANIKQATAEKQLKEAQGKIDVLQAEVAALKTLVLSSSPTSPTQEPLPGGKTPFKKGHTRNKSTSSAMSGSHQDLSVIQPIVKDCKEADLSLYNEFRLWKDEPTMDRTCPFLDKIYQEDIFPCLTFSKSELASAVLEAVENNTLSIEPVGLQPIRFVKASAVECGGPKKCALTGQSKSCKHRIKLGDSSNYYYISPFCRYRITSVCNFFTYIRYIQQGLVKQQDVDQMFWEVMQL

T1 sequence (Q5S007 960-2527 G2019S): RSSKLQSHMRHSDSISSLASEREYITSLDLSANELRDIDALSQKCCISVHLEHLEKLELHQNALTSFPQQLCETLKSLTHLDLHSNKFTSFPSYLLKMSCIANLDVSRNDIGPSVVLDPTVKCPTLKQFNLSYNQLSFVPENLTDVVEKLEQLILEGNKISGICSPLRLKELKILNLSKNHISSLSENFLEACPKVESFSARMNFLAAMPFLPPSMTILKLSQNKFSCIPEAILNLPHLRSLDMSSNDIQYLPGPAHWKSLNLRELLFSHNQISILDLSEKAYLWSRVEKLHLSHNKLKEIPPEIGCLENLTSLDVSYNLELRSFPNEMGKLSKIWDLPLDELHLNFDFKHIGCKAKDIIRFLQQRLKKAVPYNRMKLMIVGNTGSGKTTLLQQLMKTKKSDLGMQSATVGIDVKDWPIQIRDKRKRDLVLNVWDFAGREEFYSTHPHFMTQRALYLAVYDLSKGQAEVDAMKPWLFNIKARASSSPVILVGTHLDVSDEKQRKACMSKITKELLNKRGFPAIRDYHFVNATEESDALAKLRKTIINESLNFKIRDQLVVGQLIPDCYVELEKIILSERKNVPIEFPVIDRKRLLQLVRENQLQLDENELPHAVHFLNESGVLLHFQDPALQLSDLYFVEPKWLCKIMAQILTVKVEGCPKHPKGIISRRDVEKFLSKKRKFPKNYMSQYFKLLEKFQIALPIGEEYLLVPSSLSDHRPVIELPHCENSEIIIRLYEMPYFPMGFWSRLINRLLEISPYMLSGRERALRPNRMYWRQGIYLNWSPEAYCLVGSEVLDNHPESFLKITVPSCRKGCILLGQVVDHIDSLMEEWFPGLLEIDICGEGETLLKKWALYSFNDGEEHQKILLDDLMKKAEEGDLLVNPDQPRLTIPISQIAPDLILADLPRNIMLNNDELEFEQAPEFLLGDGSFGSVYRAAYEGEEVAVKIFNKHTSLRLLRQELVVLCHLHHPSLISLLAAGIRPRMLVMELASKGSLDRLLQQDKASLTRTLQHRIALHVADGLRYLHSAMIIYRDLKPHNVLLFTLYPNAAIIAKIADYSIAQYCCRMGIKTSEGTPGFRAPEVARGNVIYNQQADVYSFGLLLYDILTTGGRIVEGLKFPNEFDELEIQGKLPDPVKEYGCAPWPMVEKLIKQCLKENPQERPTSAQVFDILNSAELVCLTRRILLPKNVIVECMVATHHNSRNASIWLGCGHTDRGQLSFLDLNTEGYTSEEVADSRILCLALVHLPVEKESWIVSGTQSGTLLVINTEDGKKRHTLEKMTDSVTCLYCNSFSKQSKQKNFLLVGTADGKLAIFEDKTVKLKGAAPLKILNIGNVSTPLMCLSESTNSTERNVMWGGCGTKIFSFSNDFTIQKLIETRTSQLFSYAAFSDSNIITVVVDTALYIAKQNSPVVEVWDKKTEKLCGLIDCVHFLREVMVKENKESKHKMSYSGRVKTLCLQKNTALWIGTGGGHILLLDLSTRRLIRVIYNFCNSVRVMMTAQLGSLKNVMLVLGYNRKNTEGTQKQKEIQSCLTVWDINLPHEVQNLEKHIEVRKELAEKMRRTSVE

Molecule: O=C(Nc1cccnc1)c1cc(-c2ccnc(F)c2)ccc1OCc1ccccc1 [GSK2578215A]
- in vitro kinase assay with recombinant LRRK2 and Rab10, inhibitor at 2 μM (LRRK2): Inhibition of LRRK2-G2019S by GSK2578215A or HG-10-102-01 prevents phosphorylation.

Molecule: Rab8a 1-183 (from UniProt P61006) LRRK2-G2019S-phosphorylated, ion-exchange-enriched pT72-Rab8a
- binding against the reference (Rabin8 (Rab3IP) 144-460): weaker

Molecule: Rab8a (1-183) quantitatively phosphorylated pT72 (from UniProt P61006 1-183) (domain or fragment)
- rate of Rabin8-catalyzed mant-GDP exchange (GEF assay with Rabin8 144-245, 2 μM), T72-phosphorylated against non-phosphorylated Rab8a (1-183): inhibition [1]: 4 fold
